In assay [1] the target is T1, Human CLDN6 (on 293T-CLDN6 cells) (human, UniProt P56747 1-220).
T1 construct: In the killing assay it was also endogenous on OVCAR3 and OV90 cells; also called Claudin 6
T1 sequence: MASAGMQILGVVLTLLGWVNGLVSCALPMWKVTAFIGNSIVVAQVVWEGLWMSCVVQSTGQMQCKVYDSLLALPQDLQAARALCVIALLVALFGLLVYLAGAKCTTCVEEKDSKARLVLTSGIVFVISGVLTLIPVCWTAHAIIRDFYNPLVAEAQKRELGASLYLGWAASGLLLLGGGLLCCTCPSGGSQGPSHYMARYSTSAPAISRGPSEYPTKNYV
As to the kind of experiment: flow cytometry on 293T-CLDN6 cells.

In assay [2] the target is T2, Human CLDN9 (on 293T-CLDN9 cells) (human, UniProt O95484 1-217).
T2 construct: also called Claudin 9
T2 sequence: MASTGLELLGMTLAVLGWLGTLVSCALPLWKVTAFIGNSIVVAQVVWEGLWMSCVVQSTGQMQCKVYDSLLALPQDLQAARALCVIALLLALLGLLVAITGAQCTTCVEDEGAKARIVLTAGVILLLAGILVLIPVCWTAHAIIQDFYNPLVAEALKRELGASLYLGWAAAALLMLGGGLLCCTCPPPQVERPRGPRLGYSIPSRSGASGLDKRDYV
As to the kind of experiment: flow cytometry on 293T-CLDN9 cells. On the procedure: (§1) After centrifugation, the supernatant was discarded, and the cells were washed with PBS and incubated with Goat-anti-Mouse FITC at 4° C. After centrifugation, the supernatant was discarded, and the cells were washed and detected by flow cytometry. FlowJo v.X.0.7 was used for statistics and GraphPad Prism 8.0 was used for plotting.

Assay [3] deals with T3, Human CLDN4 (on 293T-CLDN4 cells) (human, UniProt O14493 1-209).
T3 construct: also called Claudin 4
T3 sequence: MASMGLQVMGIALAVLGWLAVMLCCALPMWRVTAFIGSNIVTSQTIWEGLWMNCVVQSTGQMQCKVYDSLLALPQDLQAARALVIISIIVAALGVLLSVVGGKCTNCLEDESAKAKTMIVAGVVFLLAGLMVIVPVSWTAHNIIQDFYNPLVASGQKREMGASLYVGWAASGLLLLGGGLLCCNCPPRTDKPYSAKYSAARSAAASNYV
As to the kind of experiment: flow cytometry on 293T-CLDN4 cells. On the procedure:
as §1

For assay [4], the target named is T3, Human CLDN4 (on 293T-CLDN4 cells). As to the kind of experiment: flow cytometry (MFI) on 293T-CLDN4 cells. On the procedure:
(§2) The heavy chain variable region of antibody P1 from Example 3 was combined with the light chain variable regions of antibodies P2 and P3 by using molecular cloning, respectively, so as to obtain antibodies M1 and M2. After being prokaryotically expressed and puried, purified single chain antibodies (scFv) were obtained. […] Data were analyzed using FlowJo to calculate mean fluorescence intensity (MFI).

Assay [5] has as its target T1, Human CLDN6 (on 293T-CLDN6 cells). As to the kind of experiment: flow cytometry EC50 on 293T-CLDN6 cells, against antibody H1. On the procedure: as §2
For assay [6], the target named is T2, Human CLDN9 (on 293T-CLDN9 cells). As to the kind of experiment: flow cytometry (MFI) on 293T-CLDN9 cells. As for the experimental part:
as §2

B1: Antibody P2 (scFv) (scFv)
scFv: EVQLVQSGAEVKKPGASVKVSCKASGYTFTGYYMNWVRQAPGQGLEWMGEINPATGSTTYNQKFKARVTITRDTSTSTAYMELSSLRSEDTAVYYCARRDYYYGSGFYAMDYWGQGTLVTVSSGGGGSGGGGSGGGGSDIQMTQSPSSLSASVGDRVTITCQASQSVSNNLNWYQQKPGKAPKLLIYGASKLEDGVPSRFSGSGSGTDFTFTISSLQPEDFATYYCLQHRYMWTFGQGTKVEIK
notes: Prokaryotically expressed single chain antibody
For the molecule B1, the EC50 in assay [1] is 144 nM.

B2: Antibody P4 (scFv) (scFv)
scFv: EVQLVQSGAEVKKPGASVKVSCKASGYTFTGYYMNWVRQAPGQGLEWMGEINPATGSTTYNQKFKARVTITRDTSTSTAYMELSSLRSEDTAVYYCARRDYYYGSGFYAMDYWGQGTLVTVSSGGGGSGGGGSGGGGSDIQMTQSPSSLSASVGDRVTITCQASQSVSNNLNWYQQKPGKAPKLLIYGASKLEDGVPSRFSGSGSGTDFTFTISSLQPEDFATYYCQQHRYMWTFGQGTKVEIK
notes: as for B1
For B2, the EC50 in assay [1] was 183 nM.

B3: humanized antibody H1 (scFv-huFc) (Fc fusion)
scFv: EVQLVQSGAEVKKPGASVKVSCKASGYTFTGYYMNWVRQAPGQGLEWMGEINPATGSTTYNQKFKARVTITRDTSTSTAYMELSSLRSEDTAVYYCARRDYYYGSGFYAMDYWGQGTLVTVSSGGGGSGGGGSGGGGSDIQMTQSPSSLSASVGDRVTITCQASQSVSNNLNWYQQKPGKAPKLLIYGASKLEDGVPSRFSGSGSGTDFTFTISSLQPEDFATYYCLQHRYLWTFGQGTKVEIK
notes: Tested as scFv-huFc; not shown: human Fc (huFc)
Molecule B3 had an EC50 in assay [1] of 475 nM. In addition, the binding result in assay [2] and in assay [3] was “no binding (tested: 10 µg/mL)” each time.

B4: Antibody P1 (scFv) (scFv)
scFv: EVQLVQSGAEVKKPGASVKVSCKASGYTFTGYYMNWVRQAPGQGLEWMGEINPATGSTTYNQKFKARVTITRDTSTSTAYMELSSLRSEDTAVYYCARRDYYLGSNSYALDYWGQGTLVTVSSGGGGSGGGGSGGGGSDIQMTQSPSSLSASVGDRVTITCQASQSVSNNLNWYQQKPGKAPKLLIYGASKLEDGVPSRFSGSGSGTDFTFTISSLQPEDFATYYCLQHRYLWTFGQGTKVEIK
notes: as for B1
Regarding B4, a half-maximal effect in assay [1] (EC50) was put at 62.7 nM.

B5: Antibody P3 (scFv) (scFv)
scFv: EVQLVQSGAEVKKPGASVKVSCKASGYTFTGYYMNWVRQAPGQGLEWMGEINPATGSTTYNQKFKARVTITRDTSTSTAYMELSSLRSEDTAVYYCARRDYYYGSGFYAMDYWGQGTLVTVSSGGGGSGGGGSGGGGSDIQMTQSPSSLSASVGDRVTITCQASQSVSNNLNWYQQKPGKAPKLLIYGASKLEDGVPSRFSGSGSGTDFTFTISSLQPEDFATYYCQQHRFMWTFGQGTKVEIK
notes: as for B1
With B5, in assay [1], the EC50 is 555 nM.

B6: antibody M1 (scFv) (scFv, V domains shown)
VH: EVQLVQSGAEVKKPGASVKVSCKASGYTFTGYYMNWVRQAPGQGLEWMGEINPATGSTTYNQKFKARVTITRDTSTSTAYMELSSLRSEDTAVYYCARRDYYLGSNSYALDYWGQGTLVTVSS
VL: DIQMTQSPSSLSASVGDRVTITCQASQSVSNNLNWYQQKPGKAPKLLIYGASKLEDGVPSRFSGSGSGTDFTFTISSLQPEDFATYYCLQHRYMWTFGQGTKVEIK
notes: Tested as a prokaryotically expressed single chain antibody (scFv)
In the case of B6, the binding result in assay [4] and in assay [6] was “no binding (tested: 5 µg/mL)” in each case. Besides, in assay [1], a half-maximal response (EC50) required 23 nM. In addition, the “fold improvement in affinity compared with antibody H1” value in assay [5] was around 20 fold.

B7: antibody M2 (scFv) (scFv, V domains shown)
VH: EVQLVQSGAEVKKPGASVKVSCKASGYTFTGYYMNWVRQAPGQGLEWMGEINPATGSTTYNQKFKARVTITRDTSTSTAYMELSSLRSEDTAVYYCARRDYYLGSNSYALDYWGQGTLVTVSS
VL: DIQMTQSPSSLSASVGDRVTITCQASQSVSNNLNWYQQKPGKAPKLLIYGASKLEDGVPSRFSGSGSGTDFTFTISSLQPEDFATYYCQQHRFMWTFGQGTKVEIK
notes: as for B6
On to B7, for which the binding result in assay [4] and in assay [6] was “no binding (tested: 5 µg/mL)” throughout. In addition, the EC50 in assay [1] turned out to be 24.7 nM. Further, in assay [5], the “fold improvement in affinity compared with antibody H1” value was around 20 fold.

Source of the values: US20260265368A1 (CARSGEN LIFE SCIENCES, published 2026).
